Measurements reported in patent US20050079613A1 (OREGON HEALTH AND SCIENCE UNIVERSITY, published 2005).

Molecular target: the molecule itself
Test: anti-Flag immunoprecipitation from metabolically labeled HeLa cells, SDS-PAGE and anti-Flag western blot
Procedure: HeLa cells were grown to 80% confluency in 100 mm tissue culture dishes and transfected as above. At 24 hours post-infection, cells were incubated in serum-free and methionine-free medium for 30 minutes, and metabolically labeled with ³⁵S-cysteine/³⁵S-methionine (300 μCi/plate, Amersham) for 2 hr. After labeling, cells were washed twice with PBS and lysed immediately in PBS containing 1% Digitonin and protease inhibitors (Roche, Indianapolis, Ind.). The cell lysate was precleared with protein A/G agarose beads overnight and incubated with 3 μg of antibody for one hour, followed by one hour with protein A/G beads. Immunoprecipated proteins were washed five times with 0.25% Digitonin in PBS. All samples were boiled in Laemmli buffer and analyzed by SDS-PAGE gel electrophoresis. Gels were fixed, dried and exposed to Kodak BioMax MR film. Western blotting was accomplished using the WesternBreeze Chemiluminescent Detection System (Invitrogen), following semi-dry transfer to PVDF membranes (Millipore, Bedford, Mass.).

B1: MARCH-I (enzyme, not shown: small tags and cut ends)
chain: MTSSHVCCNFLNMWKKSKISTMYYLNQDAKLSNLFLQASSPTTGTAPRSQSRLSVCPSTQDICRICHCEGDEESPLITPCRCTGTLRFVHQSCLHQWIKSSDTRCCELCKYDFIMETKLKPLRKWEKLQMTTSERRKIFCSVTFHVIAITCVVWSLYVLIDRTAEEIKQGNDNGVLEWPFWTKLVVVAIGFTGGLVFMYVQCKVYVQLWRRLKAYNRVIFVQNCPDTAKKLEKNFSCNVNTDIKDAVVVPVPQTGANSLPSAEGGPPEVVSV
notes: Whole open reading frame expressed by transfection in HeLa cells; Flag-tagged in the immunoprecipitation; also called MARCHI-Flag; FLJ20668
- binding result: binds
